Results reported in paper PMC10986471 (Microbiology Spectrum, 2024).

B1: CSW2-1353 (antibody, V domains shown)
VH: EVQLVESGGGLVQPKGSLKLSCAASGFNFNTYAMNWVRQAPGKGLEWVARIRSKSENYVIYYADSVKDRFTISRDDSQNMLYLQMNNLKTEDTAMYYCVMSYYGNYWFAYWGQGTLVTVSA
VL: DVVVTQTPLSLPVSLGDQASISCRSSQSLVHNNGNTYLHWYLQKPGQSPKLLIYKVSNRFSGVPDRFSGSGSGTDFTLKISRVEAEDLGVYFCSQSTHIPWTFGGGTKLEIK
notes: copies: 2 + 2
B2: CSW1-1805 (antibody, V domains shown)
VH: EVQLQQSGPELVKPGASLRISCRTSEYTFTENTMYWVKQSHGKSLEWIGGINPNNGDTIYNQQFKGKATLTVDKSSSTAYMELRSLTSEDSAVYYCARDSPVVPGDYWGQGTTLTVSS
VL: DIVMTQSPSSLPVSVGEKVTMRCKSSQSLLYSSNQKNYLAWYQQKSGQSPKLMIYWASTRECGVPDRFTGSGSGTDFTLTISNVKAEDLAVYYCQQYYRYPLTFGVGTKLELK
notes: copies: 2 + 2

What was measured:
Experiment in all cases: ELISA
Details in all cases: both partners purified
[1] = target: RBD of the Delta variant (B.1.617.2 lineage) (SARS-CoV-2 Delta (B.1.617.2), L452R | T478K)
[2] = target: RBD^B.1 (receptor-binding domain of Spike^B.1) (SARS-CoV-2 B.1 (RBD as Wuhan-Hu-1), UniProt P0DTC2)
[3] = target: RBD of the Alpha variant (B.1.1.7 lineage) (SARS-CoV-2 Alpha (B.1.1.7), N501Y)
[4] = target: RBD of the Beta variant (B.1.351 lineage) (SARS-CoV-2 Beta (B.1.351), K417N | E484K | N501Y)
[5] = target: RBD of the Gamma variant (P.1 lineage) (SARS-CoV-2 Gamma (P.1), K417T | E484K | N501Y)

Binder	Kd [1] [pM]	Kd [2] [pM]	Kd [3] [pM]	Kd [4] [pM]	Kd [5] [pM]
B1	114	118	152	–	–
B2	262	453	452	482	494
